# From patent US20250376535A1 (BEIJING STARMAB BIOMED TECHNOLOGY, published 2025)
# T1: recombinant human OX40-Fc (human, UniProt P43489 29-214)
# T1 construct: also called rh-OX40-Fc; human OX40 hFC (R & D systems)
# T1 sequence: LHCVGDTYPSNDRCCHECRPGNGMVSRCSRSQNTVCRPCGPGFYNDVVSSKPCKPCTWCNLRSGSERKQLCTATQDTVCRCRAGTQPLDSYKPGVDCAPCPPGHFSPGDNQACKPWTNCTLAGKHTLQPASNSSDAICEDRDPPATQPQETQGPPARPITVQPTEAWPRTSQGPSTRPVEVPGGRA
# Columns and labels:
# [1] = biological target: T1, recombinant human OX40-Fc; test: ELISA, OX40-Fc coated, VHH at 200 nM
# Experimental: (§1) After four times washing with PBST, the plate was incubated with detecting antibody anti-his-HRP (1:4000 dilution) 100 μl per well for one hour with shaking at 60 rpm. The plate was developed with 100 μL of TMB per well in the dark and then stopped by 50 μL of stop solution per well. […] Data was analyzed using GraphPad Prisma 9.1.
# [2] = biological target: T1, recombinant human OX40-Fc; test: ELISA, OX40-Fc coated, VHH at 0.0128 nM
# Experimental: as §1
# [3] = biological target: T1, recombinant human OX40-Fc; test: ELISA, OX40-Fc coated, VHH at 8 nM
# Experimental: as §1
# [4] = biological target: T1, recombinant human OX40-Fc; test: ELISA, OX40-Fc coated, VHH at 0.064 nM
# Experimental: as §1
# [5] = biological target: T1, recombinant human OX40-Fc; test: ELISA, OX40-Fc coated, VHH at 1.6 nM
# Experimental: as §1
# [6] = biological target: T1, recombinant human OX40-Fc; test: ELISA, OX40-Fc coated, VHH at 0.32 nM
# Experimental: as §1
# [7] = biological target: T1, recombinant human OX40-Fc; test: ELISA, OX40-Fc coated, VHH at 40 nM
# Experimental: as §1
# [8] = biological target: T1, recombinant human OX40-Fc; test: BLI, VHH-His on anti-His tips, OX40 hFc in solution;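 note: kinetics recorded at 30 °C in PBS pH 7.2, with 200 s of association followed by dissociation monitored in PBS lacking the OX40 protein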
# Experimental: Bio-Layer Interferometry (BLI) kinetic binding analysis. […] Affinity measurements were performed with Gator equipped with Anti-Penta-His capture (HIS1K) biosensor tips. The assay was performed at 30° C. in 1×PBS buffer (Gibco®, PBS pH7.2). Samples were agitated at 1000 rpm. Prior to analysis, sensors were humidified for 15 min. Purified anti-OX40 VHH was tested for its binding capacity with HIS1K sensor tips. Tips were loaded using 20 μg/ml of anti-OX40 VHH. Loading proceeded for 300 s resulting in capture levels of between 1.8 and 2 nm. […] Association was initiated and monitored for 200 sec, after which tips were transferred to 1×PBS buffer without Factor protein (Gibco, PBS pH 7.2), in order to monitor dissociation. Sensor data was collected throughout the experiments, processed, and analyzed using the Gator data analysis software.
# [9] = biological target: T1, recombinant human OX40-Fc; test: ELISA, OX40-Fc coated, VHH at 1000 nM
# Experimental: as §1
# [10] = biological target: T2, EGFR (recombinant human, BLI antigen) (human, UniProt P00533 25-645); test: BLI (Octet) as in Example 1
# T2 construct: also called rh-EGFR; human EGFR
# [11] = biological target: T3, Human CD40 antigen (recombinant, BLI) (human, UniProt P25942 21-193); test: BLI, VHH-His on anti-His tips, human CD40 in solution;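 note: kinetics measured at 30 °C in PBS pH 7.2, association tracked for 200 s, then dissociation followed in PBS lacking CD40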
# T3 construct: also called rh-CD40
# T3 sequence (P25942 21-193 limits assumed): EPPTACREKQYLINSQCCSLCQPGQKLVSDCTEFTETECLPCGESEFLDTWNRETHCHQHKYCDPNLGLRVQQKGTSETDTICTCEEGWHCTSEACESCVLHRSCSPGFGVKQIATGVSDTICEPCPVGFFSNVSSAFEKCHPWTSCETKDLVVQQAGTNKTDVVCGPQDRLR
# Experimental: Bio-Layer Interferometry (BLI) kinetic binding analysis. […] Affinity measurements were performed with Gator equipped with Anti-Penta-His capture (HIS1K) biosensor tips. The assay was performed at 30° C. in 1×PBS buffer (Gibco®, PBS pH7.2). Samples were agitated at 1000 rpm. Prior to analysis, sensors were humidified for 15 min. […] Sensor data was collected throughout the experiments, processed, and analyzed using the Gator data analysis software.
# Briefly, purified anti-CD40 VHH was tested for its binding capacity with HIS1K sensor tips. Tips were loaded using 20 μg/ml of anti-CD40 VHH. Loading proceeded for 300 sec resulting in capture levels of between 1.8 and 2 nm. […] Association was initiated and monitored for 200 sec, after which tips were transferred to 1×PBS buffer without CD40 protein in order to monitor dissociation.
# [12] = biological target: T4, EGFR Fc (human, UniProt P00533 25-645); test: ELISA, EGFR Fc coated, VHH at 10 nM
# T4 construct: also called EGFR-hFc; recombinant human EGFR-Fc
# Experimental: (§2) After four rounds of washing with PBST, the plate was incubated with detecting antibody anti-his-HRP (1:4000 dilution) 100 μl per well for one hour with shaking at 60 rpm. The plate was developed with 100 μL of TMB per well in the dark and then stopped by 50 μL of stop solution per well. […] Data was analyzed using GraphPad Prisma 9.1.
# [13] = biological target: T4, EGFR Fc; test: ELISA, EGFR Fc coated, VHH at 50 nM
# Experimental: as §2
# [14] = biological target: T4, EGFR Fc; test: ELISA, EGFR Fc coated, VHH at 2 nM
# Experimental: as §2
# [15] = biological target: T4, EGFR Fc; test: ELISA, EGFR Fc coated, VHH at 0.4 nM
# Experimental: as §2
# [16] = biological target: T4, EGFR Fc; test: ELISA, EGFR Fc coated
# Experimental: as §2
# [17] = biological target: T4, EGFR Fc; test: ELISA, EGFR Fc coated, VHH at 0.0032 nM
# Experimental: as §2
# [18] = biological target: T4, EGFR Fc; test: ELISA, EGFR Fc coated, VHH at 0.08 nM
# Experimental: as §2
# [19] = biological target: T4, EGFR Fc; test: ELISA, EGFR Fc coated, VHH at 500 nM
# Experimental: as §2
# [20] = biological target: T4, EGFR Fc; test: ELISA, EGFR Fc coated, VHH at 0.016 nM
# Experimental: as §2
Binder,OD450 [1],OD450 [2],OD450 [3],OD450 [4],OD450 [5],OD450 [6],OD450 [7],Kd [8],koff [8],kon [8],OD450 [9],also measured
"pgXX88-16 (VHH, not shown: small tags and cut ends) VHH: QVQLVESGGGLVQAGESLNLSCSASGSIRNNAVAWFRQGPGNQRLRVAAITNTGTTDYADSVQGRFSIARDNAENTVTLQMNSLKPEDTAIYYCKIYTLPVPISSHDDTWGQGTQVTVSS",1.61,0.169,1.52,0.447,1.4,0.992,1.48,,,,1.61,
"pgEG1 (VHH, not shown: small tags and cut ends) VHH: QVQLVESGGGLVQPGGSLRLSCAASGIIFEAEAMGWVRQAPGKQRESVAFIGSGGNTNVGWSVKGRFTISRDNAKNTLYLQMNSLRPEDTAVYYCNTHPLRSWGQGTQVTVS",,,,,,,,,,,,Kd [10]: 15600 pM; koff [10]: 0.00243 s⁻¹; kon [10]: 156000 M⁻¹ s⁻¹
"pgXX88-19 (VHH, not shown: small tags and cut ends) VHH: EVQLVESGGGLVQAGGSLRLSCVATGRTRSSTYIMAWFRQAPGKERDFVAAISFIGGSPVYTDSVKGRFTISRVIAENTVHLQMNDLTPEDTALYYCAATDSGPLGPSGPSKYEYWGQGTQVTVSS",1.62,0.126,1.54,0.282,1.38,0.717,1.61,,,,1.69,
"pgEG12 (VHH, not shown: small tags and cut ends) VHH: QVQLVESGGGLVQAGGSLSLSCTASRNIFSINVMSWYRQAPGKQREFVASITREDFPYYTDSVKGRFTVTRDIANNKVHLQMNSLKLEDTAVYYCNAYYRSDNYWGQGTQVTVSS",,,,,,,,,,,,Kd [10]: 12500 pM; koff [10]: 0.00251 s⁻¹; kon [10]: 201000 M⁻¹ s⁻¹
"pgXX88-5 (VHH, not shown: small tags and cut ends) VHH: QVQLVESGGGLVQAGGSLRLSCAASGGTFSTYAMGWFRQAPGKEPQFVARITWSGYTLYTEPVQGRFAISRDNAKNTVYLQMNSLKPEDTAEYFCAADSSEFRDIPNRDSRANYRYWGQGTQVTVSS",0.543,0.057,0.103,0.057,0.065,0.058,0.242,,,,1.09,
"pgDD40-HZ-58 (VHH, not shown: small tags and cut ends) VHH: QVQLVESGGGLVQPGESLTLSCVTSGFVFSNHWMYWDRQAPGKGLEWVADINLGGEMTYYSNSVKGRFTISRDNAKNTVSLRMDNLKVEDTAVYFCAANQQTPPYGLGSREYDYDYWGQGTQVTVSS",,,,,,,,,,,,Kd [11]: 40.6 pM; koff [11]: 3.32e-05 s⁻¹; kon [11]: 818000 M⁻¹ s⁻¹
"pgEG-SX9 (VHH, not shown: small tags and cut ends) VHH: QVQLVESGGGLVQAGGSLRLSCAASVSGSALSNMAWYRQRPGNQRELVAHITFDNFTNYADSVKGRFTISRDNVKNTVDLQMSSLKPEDTAVYYCNARHFFGDNYWGKGTLVTVSS",,,,,,,,,,,,OD450 [12]: 2.4; OD450 [13]: 2.28; OD450 [14]: 2.64; OD450 [15]: 2.4; EC50 [16]: 27.8 pM; OD450 [17]: 0.237; OD450 [18]: 1.84; OD450 [19]: 2.2; OD450 [20]: 0.903
"pgXX88-2 (VHH, not shown: small tags and cut ends) VHH: EVQLVESGGGLVQPGGSLRLSCAASGFAFGDIPMMWVRQAPGKGREWVSSISADSATQSYADSVQDRFTISRDNAKNTLYLEMHILKPEDTAVYYCATTDRPPPGQGTQVTVSS",1.66,0.077,1.63,0.183,1.46,0.719,1.63,485 pM,0.00023 s⁻¹,474000 M⁻¹ s⁻¹,1.67,
"pgEG6 (VHH, not shown: small tags and cut ends) VHH: QVQLVESGGGLVQPGGSLRLSCVASGIIFEAEAMGWYRQAPGKQRESVAFIGSGGNTNVGWSVKGRFTISRDNAKNTVYLQMNSLKPEDTAVYYCNTHPLRSWGQGTQVTVSS",,,,,,,,,,,,Kd [10]: 27900 pM; koff [10]: 0.0136 s⁻¹; kon [10]: 489000 M⁻¹ s⁻¹
"pgEG-SX20 (VHH, not shown: small tags and cut ends) VHH: QVQLVESGGGLVQAGGSLRLSCAGARSAFSIKPMTWYRQAPGKERELVAYFNSGGSTNYADSVKGRFTISRDNAKNTMYLQMNNLKPEDTAVYYCNAIPPLGSWGQGTQVTVSS",,,,,,,,,,,,OD450 [12]: 2.6; OD450 [13]: 2.67; OD450 [14]: 2.61; OD450 [15]: 2.67; EC50 [16]: 25 pM; OD450 [17]: 0.358; OD450 [18]: 1.95; OD450 [19]: 2.53; OD450 [20]: 1.13

# Now from value to binder, other results behind:
OD450 [1],OD450 [2],OD450 [3],OD450 [4],OD450 [5],OD450 [6],OD450 [7],Kd [8],koff [8],kon [8],OD450 [9],Binder,also measured
0.243,0.05,0.183,0.063,0.147,0.072,0.252,52.6 pM,2.42e-05 s⁻¹,460000 M⁻¹ s⁻¹,0.504,"pgXX88-83 (VHH, not shown: small tags and cut ends) VHH: EVQLVESGGGLVQTGDSLRLSCAALGGTPSTYAIGWFRQAAGKELQFVARITWNGDTWYADALPGRVAISRDNAKKTVYLQMNNLKPEDTAEYICAADVSEFRDIPNRDSRANYRYWGQGTQVTVSS",
1.3,0.155,1.34,0.115,1.02,0.334,1.35,,,,1.39,"pgXX88-27 (VHH, not shown: small tags and cut ends) VHH: EVQLVESGGGLVQPGGSVTLSCATSKDTFSRYHMGWFRQAAGKEREFVAAIANTGTTTDYADFVKGRFTISRDSAKNTVYLQMDSLKVEDTAMYYCVVGSQFMSYDYWGQGTQVTVSS",
0.296,0.057,0.31,0.085,0.29,0.175,0.324,< 1 pM,1e-06 s⁻¹,494000 M⁻¹ s⁻¹,0.34,"pgXX88-84 (VHH, not shown: small tags and cut ends) VHH: EVQLVESGGRLVQAGDSLKLSCTASGRTFSDYVMGWFRQVPGEGRLMVAVITPAGDTTEYADAVKGRFSISKDSAKRTVNLQMNNLKVDDTAVYYCAAGPSWIGMQFGTAEYWGQGTQVTVSS",
0.666,0.06,0.772,0.262,0.743,0.617,0.75,< 1 pM,1e-06 s⁻¹,549000 M⁻¹ s⁻¹,0.772,"pgXX88-81 (VHH, not shown: small tags and cut ends) VHH: EVQLVESGGGLAQPGSSLRLSCTASGTVFSILSATWFRQAPGKAHEARELVAFISSDGVSMHADSVKGRFTISRDNAKSTVYLQMDNLQPEDTAAYYCKLSNSMMGMEYWGRGTQVTVSS",
0.61,0.057,0.668,0.284,0.641,0.596,0.718,< 1 pM,1e-06 s⁻¹,464000 M⁻¹ s⁻¹,0.713,"pgXX88-60 (VHH, not shown: small tags and cut ends) VHH: EVQLVESGGGLAQPGGSLRLSCAASGFTFSNYAMGWYRQAPGKEREFVAAIDWSTNALLYGDSVKGRFTISRDNAKNTVFLQMSGLKPEDTALYYCAADRAYHTVVLGPPEGMDYWGKGTQVTVSS",
